The supplement of paper PMC10065799, “High-throughput profiling of sequence recognition by tyrosine kinases and SH2 domains using bacterial peptide display” (eLife, 2023)

How the values were obtained:
c-Src SH2 = test: SH2 binding enrichment of the phosphorylated peptide, bacterial display (enrichment ratio); higher = better substrate or ligand; peptides without Tyr show the background
Grb2 SH2 = Grb2 SH2 (UniProt P62993); test: as above
SHP2-C SH2 = test: as above
EPHB1 = EPHB1 (UniProt P54762); test: phosphorylation enrichment, bacterial display (enrichment ratio); higher = better substrate or ligand; peptides without Tyr show the background
EPHB2 = EPHB2 (UniProt P29323); test: as above
Hck = Hck (UniProt P08631); test: as above
Fyn = Fyn (UniProt P06241); test: as above
c-Src = test: as above
Fes = Fes (UniProt P07332); test: as above
c-Abl (mouse) = test: as above
Jak2 = Jak2 (UniProt O60674); test: as above
FGFR1 = FGFR1 (UniProt P11362); test: as above
MERTK = MERTK (UniProt Q12866); test: as above
FGFR3 = FGFR3 (UniProt P22607); test: as above
Fer (mouse) = test: as above
AncSZ = test: as above
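For SH2 binding enrichment of the phosphorylated peptide, bacterial display in this document: peptide library displayed on the E. coli surface as eCPX fusions, selected cells deep-sequenced, score is each peptide's frequency after selection divided by its frequency in the input.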
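For phosphorylation enrichment, bacterial display in this document: 11-residue human phosphosite peptides and single-mutation variants displayed on the E. coli surface, counted by deep sequencing, each peptide's frequency after selection divided by its frequency in the unselected input library; frequency after pTyr selection over input frequency; kinase dosed for 20-30% of maximal phosphorylation in three min.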

FGFR1, sequence (P11362 whole entry, looked up): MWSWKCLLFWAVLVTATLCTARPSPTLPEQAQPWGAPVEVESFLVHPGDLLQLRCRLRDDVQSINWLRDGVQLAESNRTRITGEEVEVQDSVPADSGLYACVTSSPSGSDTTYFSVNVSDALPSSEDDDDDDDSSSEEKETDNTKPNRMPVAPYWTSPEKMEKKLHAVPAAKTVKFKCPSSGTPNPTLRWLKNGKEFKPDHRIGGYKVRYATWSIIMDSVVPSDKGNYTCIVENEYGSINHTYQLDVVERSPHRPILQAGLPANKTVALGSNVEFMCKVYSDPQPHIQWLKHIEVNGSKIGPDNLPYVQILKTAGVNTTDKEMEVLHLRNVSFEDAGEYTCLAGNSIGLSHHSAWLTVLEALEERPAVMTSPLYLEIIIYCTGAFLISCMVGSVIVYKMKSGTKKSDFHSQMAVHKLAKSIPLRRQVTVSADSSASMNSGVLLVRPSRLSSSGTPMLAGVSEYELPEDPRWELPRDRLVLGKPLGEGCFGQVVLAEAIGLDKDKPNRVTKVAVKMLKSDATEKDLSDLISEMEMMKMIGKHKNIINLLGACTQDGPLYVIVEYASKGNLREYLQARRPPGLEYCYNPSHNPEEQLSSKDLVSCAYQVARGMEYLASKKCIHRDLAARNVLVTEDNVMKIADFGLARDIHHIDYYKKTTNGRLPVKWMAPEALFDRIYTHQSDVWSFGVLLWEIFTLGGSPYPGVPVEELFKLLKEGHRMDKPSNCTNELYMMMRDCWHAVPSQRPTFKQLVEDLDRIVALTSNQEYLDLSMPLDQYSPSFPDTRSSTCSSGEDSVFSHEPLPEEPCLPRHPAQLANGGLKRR
EPHB1, sequence (P54762 whole entry, looked up): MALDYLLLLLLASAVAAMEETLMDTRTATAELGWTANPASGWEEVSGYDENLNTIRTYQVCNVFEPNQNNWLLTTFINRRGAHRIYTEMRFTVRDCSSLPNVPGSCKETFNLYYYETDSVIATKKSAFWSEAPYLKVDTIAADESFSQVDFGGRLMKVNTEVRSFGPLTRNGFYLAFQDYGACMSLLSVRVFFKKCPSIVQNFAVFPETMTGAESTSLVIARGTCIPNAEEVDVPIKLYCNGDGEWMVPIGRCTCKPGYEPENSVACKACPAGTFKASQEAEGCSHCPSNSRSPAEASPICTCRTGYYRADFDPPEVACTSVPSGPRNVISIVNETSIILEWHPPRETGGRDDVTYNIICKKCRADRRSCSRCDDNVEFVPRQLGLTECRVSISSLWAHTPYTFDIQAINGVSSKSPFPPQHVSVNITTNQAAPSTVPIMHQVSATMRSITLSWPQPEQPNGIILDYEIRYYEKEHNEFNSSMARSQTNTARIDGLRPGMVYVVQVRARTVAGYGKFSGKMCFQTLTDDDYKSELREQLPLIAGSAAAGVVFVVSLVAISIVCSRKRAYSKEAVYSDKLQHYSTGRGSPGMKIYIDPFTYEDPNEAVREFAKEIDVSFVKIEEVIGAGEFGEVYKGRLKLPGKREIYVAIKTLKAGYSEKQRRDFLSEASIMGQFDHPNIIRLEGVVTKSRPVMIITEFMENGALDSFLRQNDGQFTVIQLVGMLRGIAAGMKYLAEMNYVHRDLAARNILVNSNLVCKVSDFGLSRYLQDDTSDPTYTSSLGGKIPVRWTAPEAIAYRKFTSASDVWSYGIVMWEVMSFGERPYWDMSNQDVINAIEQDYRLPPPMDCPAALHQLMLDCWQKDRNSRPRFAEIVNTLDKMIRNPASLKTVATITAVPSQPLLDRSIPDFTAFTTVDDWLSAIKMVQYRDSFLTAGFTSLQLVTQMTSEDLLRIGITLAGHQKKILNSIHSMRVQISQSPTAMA
EPHB2, sequence (P29323 whole entry, looked up): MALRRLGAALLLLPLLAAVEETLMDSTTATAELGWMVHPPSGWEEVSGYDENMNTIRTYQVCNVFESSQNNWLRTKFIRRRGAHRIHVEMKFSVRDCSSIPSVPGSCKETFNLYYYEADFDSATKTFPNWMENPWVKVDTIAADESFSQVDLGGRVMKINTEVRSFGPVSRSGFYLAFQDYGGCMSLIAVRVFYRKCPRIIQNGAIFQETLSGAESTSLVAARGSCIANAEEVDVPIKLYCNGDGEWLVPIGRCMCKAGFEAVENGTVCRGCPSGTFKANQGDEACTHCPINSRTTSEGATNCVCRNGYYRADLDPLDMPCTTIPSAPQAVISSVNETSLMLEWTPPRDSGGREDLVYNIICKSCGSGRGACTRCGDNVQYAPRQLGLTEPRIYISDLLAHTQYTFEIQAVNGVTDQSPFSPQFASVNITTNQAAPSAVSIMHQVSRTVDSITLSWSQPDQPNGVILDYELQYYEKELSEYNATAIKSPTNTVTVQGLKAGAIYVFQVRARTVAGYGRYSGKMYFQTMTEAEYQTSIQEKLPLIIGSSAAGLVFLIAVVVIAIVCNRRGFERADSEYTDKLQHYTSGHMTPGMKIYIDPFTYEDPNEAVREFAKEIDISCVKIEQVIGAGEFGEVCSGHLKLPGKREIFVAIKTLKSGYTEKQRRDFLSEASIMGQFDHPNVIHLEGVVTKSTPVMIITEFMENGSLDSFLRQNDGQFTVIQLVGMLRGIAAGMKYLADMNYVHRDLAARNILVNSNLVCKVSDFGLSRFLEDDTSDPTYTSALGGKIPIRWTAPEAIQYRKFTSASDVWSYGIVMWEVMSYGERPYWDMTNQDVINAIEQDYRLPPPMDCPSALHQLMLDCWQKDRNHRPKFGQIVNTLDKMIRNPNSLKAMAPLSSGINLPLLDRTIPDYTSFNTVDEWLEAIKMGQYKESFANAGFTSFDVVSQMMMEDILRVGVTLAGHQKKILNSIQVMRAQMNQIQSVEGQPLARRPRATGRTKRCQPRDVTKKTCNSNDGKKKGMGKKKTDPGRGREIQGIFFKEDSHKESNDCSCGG
MERTK, sequence (Q12866 whole entry, looked up): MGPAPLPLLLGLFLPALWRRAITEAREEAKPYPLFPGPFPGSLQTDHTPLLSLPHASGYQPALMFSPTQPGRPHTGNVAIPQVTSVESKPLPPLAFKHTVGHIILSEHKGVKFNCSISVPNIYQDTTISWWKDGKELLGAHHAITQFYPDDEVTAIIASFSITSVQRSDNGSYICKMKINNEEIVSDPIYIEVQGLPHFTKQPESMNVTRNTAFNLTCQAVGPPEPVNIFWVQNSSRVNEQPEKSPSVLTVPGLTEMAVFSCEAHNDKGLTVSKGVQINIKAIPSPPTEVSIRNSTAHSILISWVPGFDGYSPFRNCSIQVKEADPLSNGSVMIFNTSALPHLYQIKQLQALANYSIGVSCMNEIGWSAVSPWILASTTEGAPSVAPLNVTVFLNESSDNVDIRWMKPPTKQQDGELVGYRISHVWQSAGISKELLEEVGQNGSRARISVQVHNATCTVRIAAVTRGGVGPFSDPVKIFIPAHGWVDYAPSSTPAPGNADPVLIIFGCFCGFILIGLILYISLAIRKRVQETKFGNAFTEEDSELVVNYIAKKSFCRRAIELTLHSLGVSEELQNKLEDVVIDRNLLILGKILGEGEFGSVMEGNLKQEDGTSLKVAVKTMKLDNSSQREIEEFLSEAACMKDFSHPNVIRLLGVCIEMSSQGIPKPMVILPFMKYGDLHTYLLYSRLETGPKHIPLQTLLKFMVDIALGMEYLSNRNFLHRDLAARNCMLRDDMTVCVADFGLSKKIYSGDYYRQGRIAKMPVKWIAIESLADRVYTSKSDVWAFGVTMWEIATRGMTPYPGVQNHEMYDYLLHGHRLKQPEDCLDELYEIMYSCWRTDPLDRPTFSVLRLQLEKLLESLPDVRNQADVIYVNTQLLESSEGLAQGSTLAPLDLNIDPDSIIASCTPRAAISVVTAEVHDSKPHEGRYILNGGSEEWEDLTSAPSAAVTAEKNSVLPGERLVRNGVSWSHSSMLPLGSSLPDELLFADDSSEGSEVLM
Fyn, sequence (P06241 whole entry, looked up): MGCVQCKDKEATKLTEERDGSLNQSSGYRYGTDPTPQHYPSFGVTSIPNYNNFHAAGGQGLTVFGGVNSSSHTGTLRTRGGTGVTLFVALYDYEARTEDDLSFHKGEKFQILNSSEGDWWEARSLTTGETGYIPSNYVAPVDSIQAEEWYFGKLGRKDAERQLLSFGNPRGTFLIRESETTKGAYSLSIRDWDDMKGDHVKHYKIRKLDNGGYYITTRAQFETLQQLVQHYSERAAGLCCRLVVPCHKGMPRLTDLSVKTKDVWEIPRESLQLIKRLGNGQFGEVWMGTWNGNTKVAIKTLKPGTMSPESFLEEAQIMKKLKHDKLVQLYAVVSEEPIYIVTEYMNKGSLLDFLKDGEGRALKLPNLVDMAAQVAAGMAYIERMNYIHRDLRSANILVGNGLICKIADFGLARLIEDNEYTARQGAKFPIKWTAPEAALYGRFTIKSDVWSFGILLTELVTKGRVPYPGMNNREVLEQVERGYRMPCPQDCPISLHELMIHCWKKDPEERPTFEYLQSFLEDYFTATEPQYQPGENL
Grb2 SH2, sequence (P62993 whole entry, looked up): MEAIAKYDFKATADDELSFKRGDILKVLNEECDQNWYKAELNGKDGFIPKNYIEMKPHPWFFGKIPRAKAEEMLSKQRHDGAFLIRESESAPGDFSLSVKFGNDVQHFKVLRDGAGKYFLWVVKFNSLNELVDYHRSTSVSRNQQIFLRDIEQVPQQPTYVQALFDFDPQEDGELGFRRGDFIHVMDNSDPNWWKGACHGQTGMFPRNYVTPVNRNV

Sequence	SH2 binding enrichment (c-Src SH2)	SH2 binding enrichment (Grb2 SH2)	SH2 binding enrichment (SHP2-C SH2)	phosphorylation enrichment (EPHB1)	phosphorylation enrichment (EPHB2)	phosphorylation enrichment (Hck)	phosphorylation enrichment (Fyn)	phosphorylation enrichment (c-Src)	phosphorylation enrichment (Fes)	phosphorylation enrichment (c-Abl (mouse))	phosphorylation enrichment (Jak2)	phosphorylation enrichment (FGFR1)	phosphorylation enrichment (MERTK)	phosphorylation enrichment (FGFR3)	phosphorylation enrichment (Fer (mouse))	phosphorylation enrichment (AncSZ)
FGMSTYITRED [FNDC3B_Y180_YF]	0.563	0.802	0.745	0.776	0.45	0.743	0.676	0.692	1.11	0.693	0.95	0.581	0.437	0.676	0.533	0.961
YKEDPYLVVNP [MCM6_Y810_E806K]	0.58	0.829	0.538	0.405	0.515	0.591	1.04	1.74	1.11	0.662	1.03	1.24	0.455	1.09	0.46	1.19
IPTPAYQSSPA [PDCD6IP_Y727]	0.567	0.767	0.566	0.452	0.364	0.38	0.406	0.369	0.674	0.504	0.541	0.377	0.356	0.422	0.373	0.489
SSMSDYNPLEK [MYOC_Y479_I477S]	0.525	0.746	0.558	0.501	0.515	0.525	0.47	0.439	0.876	0.657	0.756	0.506	0.425	0.581	0.558	0.87
CTTIHNNFMCN [TP53_Y234_Y234N_YF]	1.07	1.15	1.32	0.606	0.591	0.517	0.507	0.439	0.974	0.593	0.95	0.51	0.459	0.623	0.558	0.879
RLLVVYRWTQR [HBB_Y36_P37R]	0.493	0.663	0.799	0.372	0.787	0.567	0.639	0.402	1.25	0.601	0.926	0.652	0.463	0.761	0.711	1.56
FMKEPYIQSRF [HIPK4_Y175_V171M_YF]	0.57	0.964	0.687	0.257	0.412	0.393	0.332	0.474	0.643	0.548	0.807	0.372	0.452	0.449	0.275	0.54
GENTMYAQVFN [LY9_Y603]	1.84	0.751	10.1	1.47	0.787	3.32	2.5	2.38	0.968	0.958	0.803	0.56	2.18	0.561	5.6	0.912
RHTRSYDFTEG [FGF7_Y56_M59T_YF]	0.427	0.88	0.611	0.377	0.492	0.387	0.366	0.351	0.695	0.563	0.444	0.411	0.35	0.382	0.399	0.557
RCLKDYGEFEV [GINS1_Y156]	0.685	0.979	0.888	0.5	0.626	0.635	0.677	1.19	1.13	1.12	1.45	0.399	0.524	0.82	1.16	1.1
SGRRRYTIAAL [TTR_Y125_P122R]	0.468	0.58	0.373	0.615	0.581	0.517	0.61	0.736	0.622	0.512	0.51	0.547	0.601	0.598	0.6	0.602
TVSQPYSFIEF [SEC22B_Y110_R108Q]	9.41	1.06	10.1	0.878	0.54	3.08	4.91	5.66	3.48	0.805	0.933	11.5	8.32	8.47	19.4	1.29
ENELTYFCCKK [CD59_Y86_YF]	0.711	0.975	0.935	0.465	0.543	1.18	1.08	2.21	1.04	0.737	2.65	0.867	0.703	0.711	0.478	1.32
PADSGYPAYLG [ATP6V1A_Y374]	0.614	1.11	0.62	1.77	0.468	0.735	1.05	0.592	1.51	1.14	0.823	0.755	0.417	0.892	0.798	1.18
WSRAMYPDLGP [STARD8_Y330]	0.608	1.02	0.933	0.396	0.397	0.463	0.463	0.39	0.779	0.52	0.579	0.467	0.478	0.575	0.435	0.745
KIMVIYDGACQ [VWDE_Y1035_T1032M]	0.455	0.776	0.597	1.3	1.11	1.49	0.885	0.796	1.69	0.965	1.83	0.687	0.519	1.07	0.897	1.35
AKKKMYSRKTK [AGXT_Y231]	0.409	0.638	0.488	0.437	0.385	0.496	0.431	0.42	0.505	0.478	0.455	0.546	0.457	0.476	0.443	0.595

Sequence	SH2 binding enrichment (c-Src SH2)	SH2 binding enrichment (Grb2 SH2)	SH2 binding enrichment (SHP2-C SH2)	phosphorylation enrichment (EPHB1)	phosphorylation enrichment (EPHB2)	phosphorylation enrichment (Hck)	phosphorylation enrichment (Fyn)	phosphorylation enrichment (c-Src)	phosphorylation enrichment (Fes)	phosphorylation enrichment (c-Abl (mouse))	phosphorylation enrichment (Jak2)	phosphorylation enrichment (FGFR1)	phosphorylation enrichment (MERTK)	phosphorylation enrichment (FGFR3)	phosphorylation enrichment (Fer (mouse))	phosphorylation enrichment (AncSZ)
QMVGMYASSFM [AVPR2_Y124_YF]	0.548	0.626	0.637	0.922	0.914	1.34	1.59	1.6	1.07	1.48	1.21	0.73	2.31	0.782	0.904	0.981
RRGTGYTLPLP [MAGEC3_Y152_S155P]	0.956	0.853	0.607	0.977	0.387	0.607	0.642	0.831	0.696	0.683	1.01	0.651	0.838	0.522	0.424	0.971
VLTSKYPGGGG [HBA1_Y141_R142P]	0.366	0.737	0.612	0.229	0.374	0.296	0.344	0.276	0.443	0.342	0.441	0.28	0.392	0.342	0.303	0.349
GRQGIYTENER [GPR143_Y231]	0.607	0.966	0.682	0.496	0.427	0.439	0.511	0.581	0.951	0.581	0.548	0.464	0.456	0.62	0.466	0.724
QRIHDYFEHRF [HCN4_Y554_YF]	0.957	0.847	0.46	0.614	0.843	0.527	0.479	0.496	0.656	0.625	0.575	5.67	0.447	3.23	0.872	1.06
NHFKIHNLCAE [PTEN_Y68_Y68H_YF]	0.513	1.04	0.751	0.384	0.374	0.394	0.466	0.432	0.642	0.367	0.459	0.428	0.437	0.441	0.384	0.58
EAGKVYLKAAM [CBFB_Y96_P100A]	0.462	0.893	0.781	0.565	0.484	0.494	0.408	0.449	1.26	0.775	1.26	0.674	0.333	0.742	0.568	1.03
AIIEEYLHLND [EIF4G1_Y1253]	0.446	0.763	0.855	0.564	0.498	0.492	0.493	0.411	1.19	0.585	0.959	0.564	0.376	0.736	0.487	1.02
GRSTFYWPSPR [GAGE12J_Y10_R13S_YF]	1.26	1.49	1.64	0.541	0.693	0.559	0.466	0.551	0.697	0.726	0.713	0.665	6.43	0.708	0.399	0.643
LSPNMYNSKLW [TARSL2_Y457]	0.51	1.09	0.763	0.632	0.753	0.831	0.622	0.573	1.19	0.726	0.561	0.75	0.603	1.13	0.5	0.879
IPTPAYQSLPA [PDCD6IP_Y727_S730L]	1.18	0.707	0.876	0.506	0.501	0.941	0.467	0.416	0.624	0.546	0.616	0.497	0.898	0.711	0.341	0.652
HEKFLYFLPAS [DYNC2H1_Y346]	0.676	0.925	0.868	1.72	1.3	2.12	1.87	1.08	1.8	1.4	2.82	1.08	3.9	1.82	0.931	2.17
NVVNEYSSELE [FGB_Y172]	0.556	0.932	0.463	0.611	0.627	0.628	0.515	0.482	1.25	0.717	0.99	0.565	0.422	0.769	0.515	1.19
YQLENCCNGGG [INS_Y108_Y108C]	0.972	0.747	0.666	1.05	0.522	0.563	0.689	0.59	0.903	0.556	0.763	0.547	0.601	0.621	0.535	0.829
VYSSDYFSFVL [USP24_Y2138]	0.442	0.798	0.62	3.74	3.95	1.95	4.46	4.61	1.35	2.92	5.25	9.06	5.03	7.74	0.875	2.21
FQGRRYDCDCD [CRYGS_Y21]	0.571	0.926	0.687	0.373	0.383	0.5	0.428	0.471	0.936	0.647	0.751	0.478	0.529	0.497	0.368	0.875
